From patent publication US20220047684A1, “ENZYMES AND METHODS FOR PREVENTING AND TREATING […] IN ANIMALS” (Ecto Development Corporation, priority 2020, published 2022)

What was measured:
[1] = pNPA method esterase (carboxylesterase) activity assay of spore productions; type: biochemical; conditions: 30° C. for 30 minutes, absorbance at 400
Description: Each of the identified enzymes were evaluated for esterase activity assay using pNBA method described below. Determination of carboxylesterase activity of cargo enzyme in Bacillus thuringiensis spore productions or of free enzyme productions. Three active carboxylesterases cloned into pBCm (Bt EO) and pET28a (E. coli BL21) systems: pnbA (B. subtilis), PytH2 (Sphingobium wenxiniae strain), and MsE1 (Methylobacterium sp). p-Nitrophenyl acetate was the substrate in assays for esterase activity. The hydrolysis of p-nitrophenyl acetate releases p-nitrophenol and acetate, and while p-nitrophenyl acetate is colorless, p-nitrophenol is yellow.
6 mg p-Nitrophenyl acetate (pNPA, CAS #830-03-5, MW: 181.1 g/mol) was weighed and dissolved in 1 mL methanol (CAS #67-56-1, MW: 32.04 g/mol). Stored at −20° C. and kept on ice when preparing reactions.
8.0 g sodium chloride (NaCl, CAS #7647-14-5, MW: 58.44 g/mol), 1.44 g sodium phosphate dibasic was dissolved (Na2HPO4, CAS #7558-79-4, MW: 141.96 g/mol), and 0.24 g potassium phosphate monobasic (KH2PO4, CAS #7778-77-0, 136.09 g/mol) in 800 mL DI H20, then adjust pH to 7.4 using hydrochloric acid (HCl, CAS #7647-01-0, MW: 36.46 g/mol). Make 100 mL aliquots and autoclave.
Esterase from rabbit liver (CAS #9016-18-6, Sigma E0887-powder). Store at −20° C. To prepare a stock dissolve 1 mg in 1 mL PBS, kept on ice when using.
Up to 1 mL spore production was pelleted up for 5 min at max speed. Supernatant was discarded without disturbing spore pellet and suspend pellet in ice-cold PBS. Spores kept suspended on ice until use.
The assay was run at 30° C. for 30 minutes. The assay was shaken continuously. Activity was read on (A) 400 BioTek Synergy/HTX microplate reader was used. The results of pNPA hydrolysis are shown in Table 3 depicting carboxylesterase enzyme activity for each of the five strains using pNPA hydrolysis.

[2] = Biological permethrin assay for esterase activity (activity units of esterases); type: biochemical; conditions: esterases used in reaction mix for scud assay
Description: A biological permethrin assay was performed for control, and three esterases pnbA, pytH2 and MsE1. The sensitivity of scuds (Hyalella Azteca) to permethrin was tested with three esterases pnbA, pytH2 and MsE1.
For control and each of the three esterases pnbA, pytH2 and MsE1, ten scuds were exposed to permethrin and one of pnbA, pytH2 or MsE1.
• 100 μL 50% MeOH in PBS • 0.2 μg/μL
• 37 degree C. • 18 hr • Shanking 1000 rpm Transferred 20 μL rxn mix [4 μg] to 100 mL [containing 10 scuds] At time, 24 h and 48 h the ten scuds were scored: A=Alive and Moving actively BA=Barely Alive—Difficulty swimming away; only legs are moving D=Dead—Not moving at all The results of which are shown in FIGS. 8 and 9.

B1: E5: esterase EstP from Klebsiella sp., amino acid SEQ. ID No. 5 (protein)
chain: MEICTKGSRKHLTSRASEPSYNVPENQYVLYVVSSTLSIVICQLVKVAESKKSRFSGAIEKLNERLDSLKDYRIINRDLVVKDLERLKKRFDTEVINAELSEQLAKINVNLSRSYSEKGYLRLEKATGSENEWWAKKPSQNDDWQQFEPDGYTIFSSRDHYASLEKSYSDYEIEAKIPLPLRRGICAVVLYPEYISRICVLPESRSIQREQENFTKLRDKGIALSKKDWQAKLTIDELAEQEKERATINKRLGYFATEHEKVGIVHKALEPKLICPFQQIEKEWRQCKVKSKSTFPNSMTFVQNPAYQAVHSGFKKLKEQIGLADEDILLSLEKIEAIGLVNMPLLYERWCLLQIIKVLTQAFRYQPEDNWKRKLIANIQGNEEQISIQFFNPSVSRAITLQYEPFLANGKRPDFVLDVEAITKSGNQISKRLVVDAKYYSAAYLKQRGGIGGVIHELYNGKDYSECQENSVFVLHPVLDAVEKVVSPQEWAKDSYLGELSMFDWEPAHHQRQATNYGAVCANPMKSQRYLDEIQRMLGMFLQYGIEDNTSFRGASDDTHAVNFCVSCGSEKVVDVTKSMSSNNQKRWYRCNECTHFTVYTHCGTCNTRLIKNGEYWTYLSLMPMSSINIKCPNCESPV
modifications: Klebsiella
With B1 the pNPA hydrolysis [1] was “BDL”.

B2: E4: pyrethroid-hydrolyzing carboxylesterase MsE1 from Methylobacterium sp., amino acid SEQ. ID No. 4 (protein)
chain: MTQDTTGFIFIREEPGPDTTRPLMLLHGTGGDENDLLPLGRMVAPEAALLAPRGGVSENGMPRFFRRLAEGVFDEADLRRRTGDLAAFVAASRARYGLGAPLALGFSNGANIAASLLMLRPETLTGAVLIRPMVPFAEPPAADLAGRPVLILSGAMDPIVPVENARRLAQQLSASGARVEHRILPAGHGLSQADVSQALAWLRSLPGPEAA
modifications: Methylobacterium
B2 gave a pNPA hydrolysis [1] of 30.6 ± 0.0 nmol pNPA/min/1E+8 spores and an Activity units [2] of 39.5.

B3: E2: pyrethroid-hydrolyzing carboxylesterase pnbA from B. subtilis, amino acid SEQ. ID No. 2 (protein, listed as Bacillus subtilis)
chain: MTHQIVTTQYGKVKGTTENGVHKWKGIPYAKPPVGQWRFKAPEPPEVWEDVLDATAYGSICPQPSDLLSLSYTELPRQSEDCLYVNVFAPDTPSKNLPVMVWIHGGAFYLGAGSEPLYDGSKLAAQGEVIVVTLNYRLGPFGFLHLSSFNEAYSDNLGLLDQAAALKWVRENISAFGGDPDNVTVFGESAGGMSIAALLAMPAAKGLFQICAIMESGASRTMTICEQAASTSAAFLQVLGINEGQLDKLHTVSAEDLLKAADQLRIAEKENFQLFFQPALDPKTLPEEPEKAIAEGAASGIPLLIGTTRDEGYLFFTPDSDVHSQETLDAALEYLLGKPLAEKVADLYPRSLESQIHMMTDLLEWRPAVAYASAQSHYAPVWMYREDWHPKKPPYNKAFHALELPFVFGNLDGLERMAKAEITDEVKQLSHTIQSAWITFAKTGNPSTEAVNWPAYHEETRETLILDSEITIENDPESEICRQKLEPSKGE
B3 gave a pNPA hydrolysis [1] of 19.7 ± 1.4 nmol pNPA/min/1E+8 spores and an Activity units [2] of 31.4.

B4: E1: pyrethroid-hydrolyzing carboxylesterase pytZ from Ochrobactrum sp., amino acid SEQ. ID No. 1 (protein)
chain: MTTQTYEHRLKAGAKGAPLFIVFHGTGGDENQFFGLAEQLLPDATIMSPRGDVSEYGAARFFRRTGEGVYDMEDLARATDKMAGFIAALAAEYKTSEVIGLGYSNGANIMANLLIEKGRVEDKAALLHPLVPFRPKDNPALEGAKILMTAGRMDPICPPDLTEALAQYFERQKADVELVWHPGGHELRQTELAAVQSLLAY
modifications: Ochrobactrum sp
In the case of B4, the pNPA hydrolysis [1] is reported as “BDL”.
